B1: Tuftelin-interacting protein 11 (Homo sapiens), Q9UBB9 (parent)
chain: MSLSHLYRDGEGRIDDDDDERENFEITDWDLQNEFNPNRQRHWQTKEEATYGVWAERDSDDERPSFGGKRARDYSAPVNFISAGLKKGAAEEAELEDSDDEEKPVKQDDFPKDFGPRKLKTGGNFKPSQKGFAGGTKSFMDFGSWERHTKGIGQKLLQKMGYVPGRGLGKNAQGIINPIEAKQRKGKGAVGAYGSERTTQSMQDFPVVDSEEEAEEEFQKELSQWRKDPSGSKKKPKYSYKTVEELKAKGRISKKLTAPQKELSQVKVIDMTGREQKVYYSYSQISHKHNVPDDGLPLQSQQLPQSGKEAKAPGFALPELEHNLQLLIDLTEQEIIQNDRQLQYERDMVVNLFHELEKMTEVLDHEERVISNLSKVLEMVEECERRMQPDCSNPLTLDECARIFETLQDKYYEEYRMSDRVDLAVAIVYPLMKEYFKEWDPLKDCTYGTEIISKWKSLLENDQLLSHGGQDLSADAFHRLIWEVWMPFVRNIVTQWQPRNCDPMVDFLDSWVHIIPVWILDNILDQLIFPKLQKEVENWNPLTDTVPIHSWIHPWLPLMQARLEPLYSPIRSKLSSALQKWHPSDSSAKLILQPWKDVFTPGSWEAFMVKNIVPKLGMCLGELVINPHQQHMDAFYWVIDWEGMISVSSLVGLLEKHFFPKWLQVLCSWLSNSPNYEEITKWYLGWKSMFSDQVLAHPSVKDKFNEALDIMNRAVSSNVGAYMQPGARENIAYLTHTERRKDFQYEAMQERREAENMAQRGIGVAASSVPMNFKDLIETKAEEHNIVFMPVIGKRHEGKQLYTFGRIVIYIDRGVVFVQGEKTWVPTSLQSLIDMAK
partner: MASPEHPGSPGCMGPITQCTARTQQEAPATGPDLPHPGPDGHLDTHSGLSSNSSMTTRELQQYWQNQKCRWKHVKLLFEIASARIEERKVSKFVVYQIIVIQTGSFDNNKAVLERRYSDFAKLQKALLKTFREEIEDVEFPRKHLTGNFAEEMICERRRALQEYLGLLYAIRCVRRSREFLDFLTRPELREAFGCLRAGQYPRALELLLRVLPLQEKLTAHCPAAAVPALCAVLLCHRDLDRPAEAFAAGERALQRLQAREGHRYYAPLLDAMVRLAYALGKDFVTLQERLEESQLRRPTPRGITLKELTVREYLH
B2: Cyclic AMP-dependent transcription factor ATF-4 (Homo sapiens), P18848 (parent)
chain: MTEMSFLSSEVLVGDLMSPFDQSGLGAEESLGLLDDYLEVAKHFKPHGFSSDKAKAGSSEWLAVDGLVSPSNNSKEDAFSGTDWMLEKMDLKEFDLDALLGIDDLETMPDDLLTTLDDTCDLFAPLVQETNKQPPQTVNPIGHLPESLTKPDQVAPFTFLQPLPLSPGVLSSTPDHSFSLELGSEVDITEGDRKPDYTAYVAMIPQCIKEEDTPSDNDSGICMSPESYLGSPQHSPSTRGSPNRSLPSPGVLCGSARPKPYDPPGEKMVAAKVKGEKLDKKLKKMEQNKTAATRYRQKKRAEQEALTGECKELEKKNEALKERADSLAKEIQYLKDLIEEVRKARGKKRVP

Variants of: B1
Settings: with snx20_human SNX20, Q7Z614

Row | effect of a mutation on the interaction | Variant
1 | with no effect | S688L

Variants of: B2
Settings: with ldoc1_human LDOC1, O95751
ldoc1_human LDOC1, O95751, sequence (O95751 whole entry): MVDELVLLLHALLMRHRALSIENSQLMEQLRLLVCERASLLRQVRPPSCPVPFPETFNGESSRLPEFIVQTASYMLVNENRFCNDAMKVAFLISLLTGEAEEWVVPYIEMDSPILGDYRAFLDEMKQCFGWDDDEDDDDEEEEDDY

Row | effect of a mutation on the interaction | Variant
2 | with no effect | MTEMSFLSSEVLVGDLMSPFDQSGLGAEESLGLLDDYLEVAKHFKPHGFSSDKAKAGSSEWLAVDGLVSPSNNSKEDAFSGTDWMLEKMDLKEFDLDALLGIDDLETMPDDLLTTLDDTCDLFAPLVQETNKQPPQTVNPIGHLPESLTKPDQVAPFTFLQPLPLSPGVLSSTPDHSFSLELGSEVDITEGDRKPDYTAYVAMIPQCIKEEDTPSDNDSGICMSPESYLGSPQHSPSTRGSPNRSLPSPGVLCGSARPKPYDPPGEKMVAAKVKGEKLDKKLKKMEQNKTAATRYRQKKRAEQEALTGECKELEKKNEALKERVDSLAKEIQYLKDLIEEVRKARGKKRVP [A324V]

Variants of: B2
Settings: with cc106_human CCDC106, Q9BWC9
cc106_human CCDC106, Q9BWC9, sequence (Q9BWC9 whole entry): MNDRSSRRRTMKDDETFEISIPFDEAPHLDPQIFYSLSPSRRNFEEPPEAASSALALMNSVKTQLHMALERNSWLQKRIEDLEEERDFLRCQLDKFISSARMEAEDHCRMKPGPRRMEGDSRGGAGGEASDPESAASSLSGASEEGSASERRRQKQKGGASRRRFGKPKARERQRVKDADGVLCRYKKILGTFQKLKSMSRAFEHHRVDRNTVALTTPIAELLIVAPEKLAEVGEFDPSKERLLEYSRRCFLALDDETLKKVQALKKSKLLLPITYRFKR

Row | effect of a mutation on the interaction | Variant
3 | with no effect | MTEMSFLSSEVLVGDLMSPFDQSGLGAEESLGLLDDYLEVAKHFKPHGFSSDKAKAGSSEWLAVDGLVSPSNNSKEDAFSGTDWMLEKMDLKEFDLDALLGIDDLETMPDDLLTTLDDTCDLFAPLVQETNKQPPQTVNPIGHLPESLTKPDQVAPFTFLQPLPLSPGVLSSTPDHSFSLELGSEVDITEGDRKPDYTAYVAMIPQCIKEEDTPSDNDSGICMSPESYLGSPQHSPSTRGSPNRSLPSPGVLCGSARPKPYDPPGEKMVAAKVKGEKLDKKLKKMEQNKTAATRYRQKKRAEQEALTGECKELEKKNEALKERVDSLAKEIQYLKDLIEEVRKARGKKRVP [A324V]

Variants of: B2
Settings: with fbw1a_human BTRC

Row | effect of a mutation on the interaction | Variant
4 | with no effect | MTEMSFLSSEVLVGDLMSPFDQSGLGAEESLGLLDDYLEVAKHFKPHGFSSDKAKAGSSEWLAVDGLVSPSNNSKEDAFSGTDWMLEKMDLKEFDLDALLGIDDLETMPDDLLTTLDDTCDLFAPLVQETNKQPPQTVNPIGHLPESLTKPDQVAPFTFLQPLPLSPGVLSSTPDHSFSLELGSEVDITEGDRKPDYTAYVAMIPQCIKEEDTPSDNDSGICMSPESYLGSPQHSPSTRGSPNRSLPSPGVLCGSARPKPYDPPGEKMVAAKVKGEKLDKKLKKMEQNKTAATRYRQKKRAEQEALTGECKELEKKNEALKERVDSLAKEIQYLKDLIEEVRKARGKKRVP [A324V]

Variants of: B2
Settings: with cc106_human CCDC106, Q9BWC9
Remark: another data set of the same source

Row | effect of a mutation on the interaction | Variant
5 | disrupting interaction strength | MTEMSFLSSEVLVGDLMSPFDQSGLGAEESLGLLDDYLEVAKHFKPHGFSSDKAKAGSSEWLAVDGLVSPSNNSKEDAFSGTDWMLEKMDLKEFDLDALLGIDDLETMPDDLLTTLDDTCDLFAPLVQETNKQPPQTVNPIGHLPESLTKPDQVAPFTFLQPLPLSPGVLSSTPDHSFSLELGSEVDITEGDRKPDYTAYVAMIPQCIKEEDTPSDNDSGICMSPESYLGSPQHSPSTRGSPNRSLPSPGVLCGSARPKPYDPPGEKMVAAKVKGEKLDKKLKKMEQNKTAATRYRQKKRAEQEALTGECKELEKKNEALKERVDSLAKEIQYLKDLIEEVRKARGKKRVP [A324V]
